Measurements published in patent US11779649B2, “Antibodies to PMEL17 and conjugates thereof” (Novartis AG, priority 2018, dated 2023).
Numbering of substitutions follows the chain as printed. Starred links: 1 amine or outer side, 2 acyl side, 3 side chain; linkers in the order of their positions; H or OH if unused. Positions of bridges follow the written chain, without caps; N, C: chain ends. Non-standard residues stand in square brackets, D forms with d. Residues, ends and D or L forms follow the SMILES beside them. *: point of attachment. Leu(3R-OH,Nα-propionyl) = CCC(=O)N[C@H](C(=O)*)[C@H](O)C(C)C; X1 = CC(C)[C@@H](O[*:3])[C@H](N[*:1])C(=O)[*:2]; NMeT = CN[C@H](C(=O)O)[C@@H](C)O; dPhLac = O=C(O)[C@H](O)Cc1ccccc1; NMeA = CN[C@@H](C)C(=O)O; NMeDha = C=C(NC)C(=O)O

T1: mouse PMEL17 (Mus musculus, UniProt Q60696)
T1 construct: B16-F10 (mouse PMEL17 expressing melanoma); endogenous in cells; host or cells: B16-F10 (mouse melanoma)
T1 sequence (Q60696 24-626): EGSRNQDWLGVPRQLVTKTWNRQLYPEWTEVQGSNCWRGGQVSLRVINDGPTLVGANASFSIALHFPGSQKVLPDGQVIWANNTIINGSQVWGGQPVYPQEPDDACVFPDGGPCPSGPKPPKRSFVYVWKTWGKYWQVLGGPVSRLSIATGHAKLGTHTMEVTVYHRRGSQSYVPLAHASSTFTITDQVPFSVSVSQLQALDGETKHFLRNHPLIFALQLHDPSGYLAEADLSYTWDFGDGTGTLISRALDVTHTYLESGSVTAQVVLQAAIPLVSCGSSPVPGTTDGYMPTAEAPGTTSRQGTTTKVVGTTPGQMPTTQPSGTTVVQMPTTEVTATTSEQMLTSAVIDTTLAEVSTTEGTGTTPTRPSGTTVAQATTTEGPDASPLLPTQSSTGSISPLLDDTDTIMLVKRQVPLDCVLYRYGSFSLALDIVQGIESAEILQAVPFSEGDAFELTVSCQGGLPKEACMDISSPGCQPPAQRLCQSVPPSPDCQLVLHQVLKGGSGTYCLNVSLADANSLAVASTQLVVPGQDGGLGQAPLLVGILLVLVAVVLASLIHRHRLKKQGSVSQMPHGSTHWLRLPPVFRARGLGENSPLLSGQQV

T2: human PMEL17 (Homo sapiens, UniProt P40967)
T2 construct: G-361 melanoma cell line expresses human PMEL17 at a lower level compared to the HKB11-human PMEL17 overexpressing cell line; endogenous in cells; host or cells: G-361 (human melanoma)
T2 sequence (P40967 25-661): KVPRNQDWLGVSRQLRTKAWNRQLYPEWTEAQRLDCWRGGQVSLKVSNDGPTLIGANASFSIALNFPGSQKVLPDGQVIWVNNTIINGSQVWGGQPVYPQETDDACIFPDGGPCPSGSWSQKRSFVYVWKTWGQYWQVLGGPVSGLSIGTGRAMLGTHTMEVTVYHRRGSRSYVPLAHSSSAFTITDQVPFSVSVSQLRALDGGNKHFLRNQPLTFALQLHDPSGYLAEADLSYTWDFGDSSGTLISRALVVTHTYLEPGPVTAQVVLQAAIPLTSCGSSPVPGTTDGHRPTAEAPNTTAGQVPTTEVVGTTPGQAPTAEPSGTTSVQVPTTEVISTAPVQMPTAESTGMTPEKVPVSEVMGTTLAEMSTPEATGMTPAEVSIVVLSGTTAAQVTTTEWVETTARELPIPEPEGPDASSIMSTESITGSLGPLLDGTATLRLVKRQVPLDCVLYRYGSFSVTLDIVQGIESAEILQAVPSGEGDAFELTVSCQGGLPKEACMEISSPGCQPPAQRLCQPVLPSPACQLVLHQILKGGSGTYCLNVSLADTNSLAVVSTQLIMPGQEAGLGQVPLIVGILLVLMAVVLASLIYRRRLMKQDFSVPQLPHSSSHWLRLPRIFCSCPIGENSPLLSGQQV

B1: Y010900: anti-PMEL17 antibody (IgG) (antibody, V domains shown)
VH: EVQLVESGGGLVKPGGSLRLSCAASGFTFSNAWMSWVRQAPGKGLEWVGRIKSKTDAGTTDYAAPVKGRFTISRDDSKNTLYLQMNSLKTEDTAVYYCARTIYPSAPSSSLDYWGQGTLVTVSS
VL: DIQMTQSPSSLSASVGDRVTITCRASQGISNYLAWYQQKPGKVPKLLIYAASTLQSGVPSRFSGSGSGTDFTLTISSLQPEDVATYYCQQLIFFPLTFGQGTKVEIK
B2: MOR024354: anti-PMEL17 antibody (IgG) (antibody, V domains shown)
VH: QVQLLESGGGLVQPGGSLRLSCAASGFTFSSFGMSWVRQAPGKGLEWVSAISYSGSDTYYADSVKGRFTISRDNSKNTLYLQMNSLRAEDTAVYYCARDVGVMDYWGQGTLVTVSS
VL: SYELTQPLSVSVALGQTARITCSGDNLGTYYAHWYQQKPGQAPVLVIYSQSHRPSGIPERFSGSNSGNTATLTISRAQAGDEADYYCGAWDAPSPELVFGGGTKLTVL
B3: Y010903: anti-PMEL17 antibody (IgG) (antibody, V domains shown)
VH: EVQLVESGGGLVKPGGSLRLSCAASGFTFSNAWMSWVRQAPGKGLEWVGRIKSKTDAGTTDYAAPVKGRFTISRDDSKNTLYLQMNSLKTEDTAVYYCARASHRLHSLFDVWGQGTLVTVSS
VL: DIQMTQSPSTLSASVGDRVTITCRASQSISSWLAWYQQKPGKAPKLLIYDASSLESGVPSRFSGSGSGTEFTLTISSLQPEDFATYYCQQGLFYPHTFGQGTKVEIK
B4: Y010910: anti-PMEL17 antibody (IgG) (antibody, V domains shown)
VH: EVQLVESGGGLVKPGGSLRLSCAASGFTFSNAWMSWVRQAPGKGLEWVGRIKSKTDAGTTDYAAPVKGRFTISRDDSKNTLYLQMNSLKTEDTAVYYCARVASPSAPGGFDYWGQGTLVTVSS
VL: B1 VL with L91S, I92L, F94A, L96F
B5: Y010355: anti-PMEL17 antibody (IgG) (antibody, V domains shown)
VH: EVQLVESGGGLVKPGGSLRLSCAASGFTFSNYWISWVRQAPGKGLEWVGRIKSKTYGGTTDYAEPVKGRFTISRDDSKNTLYLQMNSLKTEDTAVYYCARTSRRSYAFDYWGQGTLVTVSS
VL: B3 VL with G91I, L92T, F93R, H96V
B6: Y010356: anti-PMEL17 antibody (IgG) (antibody, V domains shown)
VH: EVQLVESGGGLVKPGGSLRLSCAASGFTFSNYWISWVRQAPGKGLEWVGRIKSKTYGGTTDYAEPVKGRFTISRDDSKNTLYLQMNSLKTEDTAVYYCARVSGYYSHSGGFDVWGQGTLVTVSS
VL: B1 VL with Q90K, L91T, I92W, F93R, F94T, L96G
B7: Y010906: anti-PMEL17 antibody (IgG) (antibody, V domains shown)
VH: EVQLVESGGGLVKPGGSLRLSCAASGFTFSNAWMSWVRQAPGKGLEWVGRIKSKTDAGTTDYAAPVKGRFTISRDDSKNTLYLQMNSLKTEDTAVYYCARDEYPWGWFDVWGQGTLVTVSS
VL: B1 VL with L11V, N31S, Y32W, V43A, T53S, V83F, L91Y, F94Y

biological target: T1, mouse PMEL17; test: Apparent affinity by FACS titration of IgGs on B16-F10 melanoma cells; type: binding; conditions: Alexa Fluor
Method: (§1) Purified IgGs were titrated on a variety of PMEL17 expressing and PMEL17 non expressing cell lines (for control) to determine EC50 values. Cells were harvested using Accutase, adjusted to ˜4×10^6 cells/ml into FACS buffer (PBS, 3% FCS and 0.02% Na-Azide) and kept on ice to avoid internalization. 15 μl of cell suspension/well were transferred into 384 well V-bottom plates (Greiner, Cat #781280) and incubated with 15 μl of IgGs at different concentrations (most commonly from 200 to 3.5×10−3 nM) for 1 hour at 4° C., gently shaking. Following incubation, cells were washed three times with FACS buffer. After each washing step, cells were centrifuged (250×g, 5 min, 4° C.) and carefully resuspended. 15 μl of detection antibody conjugated to PE (PE-conjugated goat anti-human IgG, F(ab′)2 fragment specific, 1:150 in FACS buffer; Jackson Immuno Research, #109-116-097) or Alexa Fluor (Alexa Fluor-conjugated goat anti-human IgG, F(ab′)2 fragment specific, 1:150 in FACS buffer; Jackson Immuno Research, #109-606-097) were added and samples were incubated for 45 minutes to 1 hour on ice in the dark, gently shaking. After 3 washing steps, cells were resuspended in 30 μl of FACS buffer and samples were measured using the IntelliCyt HTFC device. EC50 values were calculated using the Graphpad Prism software. G-361 melanoma cell line expresses human PMEL17 at a lower level compared to the HKB11-human PMEL17 overexpressing cell line, and therefore allows a more precise ranking of the clones depending on their apparent affinity on cells.
(§2) The cross-specificity of the IgGs was evaluated in does response FACS on G-361 (human melanoma), HKB11-cyno-PMEL17, HKB11-rat PMEL17 and B16-F10 (mouse PMEL17 expressing melanoma) (Table 3). Testing on G-361 was performed using a detection antibody labelled to PE. In contrast, an Alexa-Fluor labelled detection antibody had to be used for testing the candidates on the other cell lines so as to reach detectable signals.

Question: For B1, which EC50 is on record?
Answer: Its EC50 is over 100 nM.

Question: For B2, which EC50 is on record?
Answer: Its EC50 is over 100 nM.

biological target: T2, human PMEL17; test: Apparent affinity by FACS titration of IgGs on G-361 melanoma cell line; type: binding; conditions: G-361, Alexa Fluor-labelled detection antibody; read-out: FACS EC50 (nM) G-361 (Alexa Fluor)
Method: as §1
The cross-specificity of the IgGs was evaluated in does response FACS on G-361 (human melanoma), HKB11-cyno-PMEL17, HKB11-rat PMEL17 and B16-F10 (mouse PMEL17 expressing melanoma) (Table 3). […]

Question: How did the EC50 turn out when B3 was run?
Answer: The EC50 was 3.2 nM.

Question: For B1, which EC50 is on record?
Answer: Its EC50 is 1.3 nM.

Question: With B4 as the molecule, how does the EC50 read?
Answer: The EC50 was 10 nM.

Question: Which EC50 does the source give for B2 here?
Answer: The EC50 was 1.7 nM.

same assay, conditions: G-361, PE-labelled detection antibody; read-out: FACS EC50 (nM) G-361 (PE)

Question: For B5, which EC50 is on record?
Answer: Its EC50 is 0.5 nM.

Question: For B6, which EC50 is on record?
Answer: The EC50 was 1.6 nM.

tested on: PMEL17; test: Cross-reactivity (cross-specificity profile) of anti-PMEL17 IgGs in dose response FACS; type: binding; parameters: key: h/c/r/m: human/cyno/rat/mouse; h/c/r: human/cyno/rat; h/c/(m): human/cyno/mouse; h/c: human/cyno; conditions: h human, c cyno, r rat, m mouse
Method: as §2
IgGs were classified into several epitope groups according to their cross-specificity profiles.

Question: For B5, which “Cross spe profile (based on C14 detection ab)” value (“Cross spe profile” below) is on record?
Answer: The value was “h/c/r/m”.

Question: How did the “Cross spe profile” value turn out when B3 was run?
Answer: Its value is “h/c/(m)”.

Question: Which “Cross spe profile” value does the source give for B1 here?
Answer: Its value is “h/c/r/m”.

Question: With B4 as the molecule, how does the “Cross spe profile” value read?
Answer: Its value is “h/c/(m)”.

Question: For B7, which “Cross spe profile” value is on record?
Answer: The value was “h/c/r/m”.

Question: With B6 as the molecule, how does the “Cross spe profile” value read?
Answer: The value was “h/c/r/m”.

Question: Which “Cross spe profile” value does the source give for B2 here?
Answer: Its value is “h/c/r”.

tested on: UACC-62; test: FACS titration of IgGs on UACC-62 cells; type: binding; conditions: UACC-62, PE-labelled detection antibody
Method: as §1

Question: B5 was tested. Which “UACC-62 (PE)” value did it give?
Answer: The value was “Negative”.

Question: B3 was tested. Which “UACC-62 (PE)” value did it give?
Answer: The value was “Negative”.

Question: How did the “UACC-62 (PE)” value turn out when B1 was run?
Answer: Its value is “Negative”.

Question: How did the “UACC-62 (PE)” value turn out when B4 was run?
Answer: The value was “Negative”.

Question: With B7 as the molecule, how does the “UACC-62 (PE)” value read?
Answer: Its value is “Negative”.

Question: Which “UACC-62 (PE)” value does the source give for B6 here?
Answer: The value was “Negative”.

Question: For B2, which “UACC-62 (PE)” value is on record?
Answer: The value was “Negative”.

tested on: 92.1 uveal melanoma; test: Resazurin-based viability assay, 92.1 uveal melanoma cells; type: cell-based; conditions: 92.1 GNAQ^Q209L; Table 1; read-out: GI50 (nM) 92.1GNAQ^Q209L
Method: (§3) Following drug treatment for 96 or 120 hours, cell viability and proliferation were determined using a resazurin-based viability assay. Briefly, cells were incubated with a resazurin-based solution and color change was detected by absorbance with a spectrophotometer and used as a readout of cell viability. Data presented as mean of 3 independent replicates and relative to PBS-treated cells (control).
Following drug treatment for 96 or 120 hours, cell viability and proliferation were determined using a resazurin-based viability assay. Briefly, cells were incubated with a resazurin-based solution and color change was detected by absorbance with a spectrophotometer and used as a readout of cell viability. Data presented as mean of 3 independent replicates and relative to PBS-treated cells (control) (FIG. 6).
Following drug treatment for 96 or 120 hours, cell viability and proliferation were determined using a resazurin-based viability assay. Data presented as mean of 3 independent replicates and relative to PBS-treated cells (control) (FIG. 8).
as §3

Question: How did the GI50 turn out when `C=C1C(=O)N[C@@H](C)C(=O)N(C)[C@@H](C)C(=O)N[C@@H]([C@H](OC(=O)[C@@H](NC(=O)CC)[C@H](O)C(C)C)C(C)C)C(=O)N(C)[C@@H]([C@@H](C)OC)C(=O)O[C@H](C)[C@H](NC(C)=O)C(=O)O[C@H](Cc2ccccc2)C(=O)N1C` [Compound (A3), (R)-1-((3S,6S,9S,12S,18R,21S,22R)-21-acetamido-18-benzyl-3-((R)-1-methoxyethyl)-4,9,10,12,16,22-hexamethyl-15-methylene-2,5,8,11,14,17,20-heptaoxo-1,19-dioxa-4,7,10,13,16-pentaazacyclodocosan-6-yl)-2-methylpropyl (2S,3R)-3-hydroxy-4-methyl-2-propionamidopentanoate] (Ac-T[dPhLac][NMeDha]A[NMeA][X1](Leu(3R-OH,Nα-propionyl))[NMeT](Me); ester 1-C) was run?
Answer: The GI50 was 9.3 nM.
